Results taken from the Human Domainome abundance scans (Beltran et al. 2025).
± gives the uncertainty stated by the source.

B1: Protein S100-G, residues 1 to 79; numbered along this chain, P02633 (parent)
chain: MSAKKSPEELKGIFEKYAAKEGDPNQLSKEELKLLLQTEFPSLLKGPSTLDELFEELDKNGDGEVSFEEFQVLVKKISQ

Variants of: B1
Assay: abundance fitness (aPCA) (normalised: wild type 0, dead -1); higher = more abundant; growth selection in yeast, the domain comes from the species named
Settings: Bos taurus

Row | Variant | abundance fitness
1 | MSAKKSPEELKGIFEKYAAKEGDPNQLSKEELKLLLQTEFPSLLKGPSTLDELFEELDKNGDGEVSFEEFAVLVKKISQ [Q71A] | -0.031 ± 0.073
2 | MSAKKSPEELKGIFEKYAAKEGDPNQLSKEELKLLLQTEFPSLLKGPSTLDELFEELDKNGDGEVSFEKFQVLVKKISQ [E69K] | -0.016 ± 0.099
3 | MSAKKSPEELKGIFEKYAAKEGDPNQLSKEELKLLLQTEFPSLLKGPSTLDELFEELDKNGDGEVSFENFQVLVKKISQ [E69N] | -0.215 ± 0.1
4 | MSAKKSPEELKGIFEKYAAKEGDPNQLSKEELKLLLQTEFPSLLKGPSTLDELFEELDKNGDGEVSFEDFQVLVKKISQ [E69D] | 0.009 ± 0.11
5 | MSAKKSPEELKGIFEKYAAKEGDPNQLSKEELKLLLQTEFPSLLKGPSTLDELFEELDKNGDGEVSFERFQVLVKKISQ [E69R] | -0.056 ± 0.07
6 | MSAKKSPEELKGIFEKYAAKEGDPNQLSKEELKLLLQTEFPSLLKGPSTLDELFEELDKNGDGEVSFEQFQVLVKKISQ [E69Q] | 0.016 ± 0.08
7 | MSAKKSPEELKGIFEKYAAKEGDPNQLSKEELKLLLQTEFPSLLKGPSTLDELFEELDKNGDGEVSFEWFQVLVKKISQ [E69W] | -0.253 ± 0.085
8 | MSAKKSPEELKGIFEKYAAKEGDPNQLSKEELKLLLQTEFPSLLKGPSTLDELFEELDKNGDGEVSFEIFQVLVKKISQ [E69I] | -0.055 ± 0.094
9 | MSAKKSPEELKGIFEKYAAKEGDPNQLSKEELKLLLQTEFPSLLKGPSTLDELFEELDKNGDGEVSFEMFQVLVKKISQ [E69M] | 0.022 ± 0.091
10 | MSAKKSPEELKGIFEKYAAKEGDPNQLSKEELKLLLQTEFPSLLKGPSTLDELFEELDKNGDGEVSFESFQVLVKKISQ [E69S] | -0.07 ± 0.068
11 | MSAKKSPEELKGIFEKYAAKEGDPNQLSKEELKLLLQTEFPSLLKGPSTLDELFEELDKNGDGEVSFEGFQVLVKKISQ [E69G] | 0.06 ± 0.086
12 | MSAKKSPEELKGIFEKYAAKEGDPNQLSKEELKLLLQTEFPSLLKGPSTLDELFEELDKNGDGEVSFEVFQVLVKKISQ [E69V] | -0.021 ± 0.083
13 | MSAKKSPEELKGIFEKYAAKEGDPNQLSKEELKLLLQTEFPSLLKGPSTLDELFEELDKNGDGEVSFEFFQVLVKKISQ [E69F] | -0.215 ± 0.1
14 | MSAKKSPEELKGIFEKYAAKEGDPNQLSKEELKLLLQTEFPSLLKGPSTLDELFEELDKNGDGEVSFETFQVLVKKISQ [E69T] | -0.013 ± 0.077
15 | MSAKKSPEELKGIFEKYAAKEGDPNQLSKEELKLLLQTEFPSLLKGPSTLDELFEELDKNGDGEVSFEHFQVLVKKISQ [E69H] | -0.007 ± 0.079
16 | MSAKKSPEELKGIFEKYAAKEGDPNQLSKEELKLLLQTEFPSLLKGPSTLDELFEELDKNGDGEVSFELFQVLVKKISQ [E69L] | -0.006 ± 0.061
17 | MSAKKSPEELKGIFEKYAAKEGDPNQLSKEELKLLLQTEFPSLLKGPSTLDELFEELDKNGDGEVSFEENQVLVKKISQ [F70N] | -1.25 ± 0.093
18 | MSAKKSPEELKGIFEKYAAKEGDPNQLSKEELKLLLQTEFPSLLKGPSTLDELFEELDKNGDGEVSFEELQVLVKKISQ [F70L] | -0.157 ± 0.061

Row | Variant | abundance fitness
19 | MSAKKSPEELKGIFEKYAAKEGDPNQLSKEELKLLLQTEFPSLLKGPSTLDELFEELDKNGDGEVSFEESQVLVKKISQ [F70S] | -0.531 ± 0.064
20 | MSAKKSPEELKGIFEKYAAKEGDPNQLSKEELKLLLQTEFPSLLKGPSTLDELFEELDKNGDGEVSFEEDQVLVKKISQ [F70D] | -1.14 ± 0.11
21 | MSAKKSPEELKGIFEKYAAKEGDPNQLSKEELKLLLQTEFPSLLKGPSTLDELFEELDKNGDGEVSFEEAQVLVKKISQ [F70A] | -0.157 ± 0.072
22 | MSAKKSPEELKGIFEKYAAKEGDPNQLSKEELKLLLQTEFPSLLKGPSTLDELFEELDKNGDGEVSFEEWQVLVKKISQ [F70W] | -0.115 ± 0.082
23 | MSAKKSPEELKGIFEKYAAKEGDPNQLSKEELKLLLQTEFPSLLKGPSTLDELFEELDKNGDGEVSFEEHQVLVKKISQ [F70H] | -1 ± 0.083
24 | MSAKKSPEELKGIFEKYAAKEGDPNQLSKEELKLLLQTEFPSLLKGPSTLDELFEELDKNGDGEVSFEETQVLVKKISQ [F70T] | -0.162 ± 0.07
25 | MSAKKSPEELKGIFEKYAAKEGDPNQLSKEELKLLLQTEFPSLLKGPSTLDELFEELDKNGDGEVSFEEEQVLVKKISQ [F70E] | -1.25 ± 0.11
26 | MSAKKSPEELKGIFEKYAAKEGDPNQLSKEELKLLLQTEFPSLLKGPSTLDELFEELDKNGDGEVSFEEQQVLVKKISQ [F70Q] | -1.01 ± 0.085
27 | MSAKKSPEELKGIFEKYAAKEGDPNQLSKEELKLLLQTEFPSLLKGPSTLDELFEELDKNGDGEVSFEECQVLVKKISQ [F70C] | -0.169 ± 0.099
28 | MSAKKSPEELKGIFEKYAAKEGDPNQLSKEELKLLLQTEFPSLLKGPSTLDELFEELDKNGDGEVSFEEIQVLVKKISQ [F70I] | -0.534 ± 0.082
29 | MSAKKSPEELKGIFEKYAAKEGDPNQLSKEELKLLLQTEFPSLLKGPSTLDELFEELDKNGDGEVSFEEPQVLVKKISQ [F70P] | -0.94 ± 0.077
30 | MSAKKSPEELKGIFEKYAAKEGDPNQLSKEELKLLLQTEFPSLLKGPSTLDELFEELDKNGDGEVSFEERQVLVKKISQ [F70R] | -0.797 ± 0.066
31 | MSAKKSPEELKGIFEKYAAKEGDPNQLSKEELKLLLQTEFPSLLKGPSTLDELFEELDKNGDGEVSFEEYQVLVKKISQ [F70Y] | -0.039 ± 0.076
32 | MSAKKSPEELKGIFEKYAAKEGDPNQLSKEELKLLLQTEFPSLLKGPSTLDELFEELDKNGDGEVSFEEMQVLVKKISQ [F70M] | -0.105 ± 0.084
33 | MSAKKSPEELKGIFEKYAAKEGDPNQLSKEELKLLLQTEFPSLLKGPSTLDELFEELDKNGDGEVSFEEKQVLVKKISQ [F70K] | -0.965 ± 0.09
34 | MSAKKSPEELKGIFEKYAAKEGDPNQLSKEELKLLLQTEFPSLLKGPSTLDELFEELDKNGDGEVSFEEGQVLVKKISQ [F70G] | -0.73 ± 0.079
35 | MSAKKSPEELKGIFEKYAAKEGDPNQLSKEELKLLLQTEFPSLLKGPSTLDELFEELDKNGDGEVSFEEVQVLVKKISQ [F70V] | -0.165 ± 0.07
